Assay [1] deals with T1, Monomeric human CD48-mmH (human).
T1 chain: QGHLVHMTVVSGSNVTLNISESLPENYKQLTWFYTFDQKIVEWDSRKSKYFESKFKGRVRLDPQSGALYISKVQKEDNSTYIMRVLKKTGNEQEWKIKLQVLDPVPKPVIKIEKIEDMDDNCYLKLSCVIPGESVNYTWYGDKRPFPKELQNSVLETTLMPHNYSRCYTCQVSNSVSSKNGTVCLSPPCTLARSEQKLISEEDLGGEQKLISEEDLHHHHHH
Nature of the assay: SPR (Biacore), antibody captured by anti-Fc, CD48 in solution, 37 C. The procedure:
(§1) Measurements were conducted on a T100-2 BIACORE™ instrument (Biacore Life Sciences division of GE Healthcare, Piscataway, N.J.). Antibodies (either with mouse Fc [designated “H2M” or “H3M”] or human IgG4 Fc [designated “H4H”]) were captured through an anti-Fc chip surface, and CD48 was flowed over the surface either in a monomeric (soluble CD48 expressed with a myc-myc-hexa-histidine C-terminal tag [mmH]) or dimeric (soluble CD48 expressed with a C-terminal Fc fusion [mFc]) format.
(§2) The soluble CD48 was applied to the flow cell in separate injections at different concentrations, and kinetic association (kₐ) and dissociation (kd) rate constants were determined by fits to the kinetic binding data using Biacore software. Binding dissociation equilibrium constants and dissociation half-times were calculated from the kinetic rate constants as: KD=kd/kₐ; t_{1/2}=(ln 2/kd) (units: ka=M⁻¹*s⁻¹; kd=s⁻¹; KD=M; T½=min) (Tables 3-6).
A general note: SPR reads the build-up and loss of mass on a sensor chip optically.

Assay [2] concerns the target T2, Dimeric human CD48-mFc (human).
T2 construct: the whole entry is the construct; also called hCD48-mFc
T2 chain: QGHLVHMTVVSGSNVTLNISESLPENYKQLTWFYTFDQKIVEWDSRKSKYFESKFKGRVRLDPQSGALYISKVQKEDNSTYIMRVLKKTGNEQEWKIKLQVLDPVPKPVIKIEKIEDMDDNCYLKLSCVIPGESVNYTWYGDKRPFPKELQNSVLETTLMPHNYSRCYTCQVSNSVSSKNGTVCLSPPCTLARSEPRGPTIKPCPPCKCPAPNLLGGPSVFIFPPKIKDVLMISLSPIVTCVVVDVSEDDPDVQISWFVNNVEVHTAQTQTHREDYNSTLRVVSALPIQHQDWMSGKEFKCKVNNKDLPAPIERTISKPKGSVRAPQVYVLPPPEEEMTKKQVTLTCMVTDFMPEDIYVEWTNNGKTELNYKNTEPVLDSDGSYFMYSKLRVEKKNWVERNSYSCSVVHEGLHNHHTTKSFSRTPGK
The assay is described as above. The procedure:
as §1, §2

Assay [3] concerns the target T3, Dimeric human CD48-mFc (human).
T3 chain: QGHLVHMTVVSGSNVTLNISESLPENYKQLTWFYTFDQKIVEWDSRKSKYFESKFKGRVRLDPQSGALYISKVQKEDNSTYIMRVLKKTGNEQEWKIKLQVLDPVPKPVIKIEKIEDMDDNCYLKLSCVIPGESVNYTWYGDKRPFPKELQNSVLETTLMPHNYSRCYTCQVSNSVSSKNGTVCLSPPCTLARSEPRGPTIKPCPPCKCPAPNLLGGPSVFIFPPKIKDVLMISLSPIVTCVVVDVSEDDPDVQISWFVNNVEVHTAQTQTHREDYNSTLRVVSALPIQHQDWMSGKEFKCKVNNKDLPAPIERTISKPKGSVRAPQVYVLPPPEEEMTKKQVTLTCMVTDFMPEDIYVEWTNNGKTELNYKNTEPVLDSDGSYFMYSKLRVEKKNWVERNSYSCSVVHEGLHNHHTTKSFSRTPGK
Nature of the assay: SPR (Biacore T100), 25 C, antibody captured by anti-Fc, dimeric CD48-mFc in solution. As to the method: as §1, §2

For assay [4], the target named is T4, Monomeric human CD48-mmH (human).
T4 construct: also called soluble CD48 expressed with a myc-myc-hexa-histidine C-terminal tag [mmH]
T4 chain: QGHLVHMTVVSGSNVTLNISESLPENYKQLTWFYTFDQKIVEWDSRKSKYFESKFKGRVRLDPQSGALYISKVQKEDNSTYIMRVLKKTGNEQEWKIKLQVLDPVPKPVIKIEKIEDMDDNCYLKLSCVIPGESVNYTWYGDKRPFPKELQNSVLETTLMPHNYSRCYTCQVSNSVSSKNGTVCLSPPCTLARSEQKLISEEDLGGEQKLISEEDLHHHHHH
Nature of the assay: SPR (Biacore T100), 25 C, antibody captured by anti-Fc, monomeric CD48-mmH in solution. The procedure: as §1, §2

B1: H2M1713N (antibody, mouse IgG2, V domains shown)
VH: QVQLVQSGAEVKKPGASVKVSCKASGHTFTNYYIHWVRQAPGQGLEWMGITNPNDGNTRYAQKFQGRISMTWDTSTSTVFMELSSLKSEDTAVYYCAGLRYWFFDLWGRGTPVTVSS
VL: DIQMTQSPSSVSASVGDRVTITCRASQDISSWLAWYQQKPGKAPNLLIFAASSLQSGVPSRFSGSGSGTDFTLTISSLQPEDFGTYYCQQTDNFPRTFGQGTKVEIN
notes: Human variable domains, mouse IgG2 Fc (H2M)
For orientation: Kd means the concentration at which binding is half-saturated. A high value points to a looser complex. Broadly, the koff is the first-order rate constant of dissociation. The term kon denotes the second-order rate constant of association. Regarding B1, in the assay with Monomeric human CD48-mmH [1], the Kd came to 2740 pM, the T½ was 18 min, the koff came to 0.000644 s⁻¹ and the kon was 235000 M⁻¹ s⁻¹. Besides, in the assay with Dimeric human CD48-mFc [2], the Kd is 66.3 pM, the T½ amounted to 140 min, the koff was determined as 8.27e-05 s⁻¹ and the kon came out at 1.25e+06 M⁻¹ s⁻¹.

B2: H4H1713N (antibody, human IgG4, V domains shown)
VH: QVQLVQSGAEVKKPGASVKVSCKASGHTFTNYYIHWVRQAPGQGLEWMGITNPNDGNTRYAQKFQGRISMTWDTSTSTVFMELSSLKSEDTAVYYCAGLRYWFFDLWGRGTPVTVSS
VL: DIQMTQSPSSVSASVGDRVTITCRASQDISSWLAWYQQKPGKAPNLLIFAASSLQSGVPSRFSGSGSGTDFTLTISSLQPEDFGTYYCQQTDNFPRTFGQGTKVEIN
notes: Human IgG4 Fc (prefix H4H)
In the assay with Dimeric human CD48-mFc [3], B2 yielded a Kd of 21.2 pM, a T½ of 609 min, a koff of 1.9e-05 s⁻¹ and a kon of 894000 M⁻¹ s⁻¹. In the assay with Monomeric human CD48-mmH [4], this molecule displayed a Kd of 893 pM, a T½ of 67 min, a koff of 0.000174 s⁻¹ and a kon of 194000 M⁻¹ s⁻¹.

B3: H2M1713N (antibody, mouse IgG2, V domains shown)
VH: QVQLVQSGAEVKKPGASVKVSCKASGHTFTNYYIHWVRQAPGQGLEWMGITNPNDGNTRYAQKFQGRISMTWDTSTSTVFMELSSLKSEDTAVYYCAGLRYWFFDLWGRGTPVTVSS
VL: DIQMTQSPSSVSASVGDRVTITCRASQDISSWLAWYQQKPGKAPNLLIFAASSLQSGVPSRFSGSGSGTDFTLTISSLQPEDFGTYYCQQTDNFPRTFGQGTKVEIN
notes: Human variable domains, mouse IgG2 Fc (prefix H2M)
With B3, in the assay with Dimeric human CD48-mFc [3], binding was put at a Kd of 13.4 pM, the T½ amounted to 1040 min, the koff came to 1.11e-05 s⁻¹ and the kon came out at 826000 M⁻¹ s⁻¹. Besides, in the assay with Monomeric human CD48-mmH [4], the affinity, expressed as Kd, was 1350 pM; the T½ came out at 53 min; the koff came out at 0.000217 s⁻¹; the kon worked out at 161000 M⁻¹ s⁻¹.

B4: H2M1707N (antibody, V domains shown)
VH: EGQLLESGGGLAQPGGSLRLSCAASGITFGRYAMSWVRQAPGKGLEWVSLISGSGGSTYHADSVKGRFTISRDNSKNTLYLQMNSLRAEDTAVYYCAIYNNYNWFDPWGQGTLVTVSS
VL: EIVLTQSPGTLSLSPGERATLSCRASQSVSSNYLAWYQQKPGQAPRLLIYDASSRATDIPDRFSGSGSGTDFTLTISRLEPEDFAVYYCQQYGSSPRTFGQGTKVEIK
notes: as for B1
With B4, in the assay with Monomeric human CD48-mmH [1], binding was put at a Kd of 14700 pM, the T½ was 4 min, the koff was determined as 0.00314 s⁻¹ and the kon stood at 214000 M⁻¹ s⁻¹. Moreover, in the assay with Dimeric human CD48-mFc [2], the affinity, expressed as Kd, was 247 pM; the T½ came out at 51 min; the off-rate constant (koff) stood at 0.000227 s⁻¹; the kon was determined as 920000 M⁻¹ s⁻¹.

B5: H2M1709N (antibody, mouse IgG2, V domains shown)
VH: QVQLVQSGAEVKKPGASVKVSCKVSGYTLTELSIHWVRQAPGKGLEWMGGFDPEDGETIYAQKFQGRVNMTEDTSTDTAYMELSSLRSDDTTVYFCASLLPYFDYWGQGTLVTVSS
VL: EIVLTQSPGTLSLSPGERATLSCRASQSVSSSYLAWYQQKPGQAPRLLIYGASSRATGIPDRFSGSGSGTDFTLSISRLEPEDFAVYFCQQYGSSMYTFGQGTKLEIK
notes: as for B1
For the molecule B5, in the assay with Monomeric human CD48-mmH [1], the affinity, expressed as Kd, was 35100 pM; the T½ is 0 min; the koff was found to be 0.04 s⁻¹; the kon was determined as 1.14e+06 M⁻¹ s⁻¹. Besides, in the assay with Dimeric human CD48-mFc [2], the Kd stood at 248 pM, the T½ was found to be 31 min, the koff turned out to be 0.000377 s⁻¹ and the kon amounted to 1.52e+06 M⁻¹ s⁻¹.

Source of the values: patent US20130230533A1 (Regeneron, published 2013).
